According to the supplement of paper PMC7877785:
± gives the uncertainty stated by the source.

Test: self-splicing fitness, log relative to wild type (ln ratio); higher = more splicing; Tetrahymena group I intron in knt gene, E. coli kanamycin selection, DiMSum; sequences stand for … in CUCUCU…GGAGGGAAAAGUUAUCAGGCAUGCACCUGGUAGCUAGUCUUUAAACCAAUAGAUUGCAUCGGUUUAAAAGGCAAGACCGUCAAAUUGCGGGAAAGGGGUCAACAGCCGUUCAGUACCAAGUCUCAGGGGAAACUUUGAGAUGGCCUUGCAAAGGGUAUGGUAAUAAGCUGACGGACAUGGUCCUAACCACGCAGCCAAGUCCUAAGUCAACAGAUCUUCUGUUGAUAUGGAUGCAGUUCACAGACUAAAUGUCGGUCGGGGAAGAUGUAUUCUUCUCAUAAGAUAUAGUCGGACCUCUCCUUAAUGGGAGCUAGCGGAUGAAGUGAUGCAACACUGGAGCCGCUGGGAACUAAUUUGUAUGCGAAAGUAUAUUGAUUAGUUUUGGAGUACUCGUGGUCG
How it was run: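 Six replicate transformations of E. coli BL21(DE3) with a pET-22b(+) library were grown overnight at 37°C or 30°C. The library randomised all eight P1ex-region intron nucleotides, the intron lying in the knt kanamycin-resistance gene, and plates were LB agar with or without 25 μg/mL kanamycin plus 100 μg/mL carbenicillin, 50 μM IPTG and 0.2% rhamnose. Pooled colonies were amplicon-sequenced on an Illumina HiSeq 2500, and fitness is the DiMSum error-weighted combination of wild-type-normalised replicate fold changes, kanamycin versus none.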

| Sequence | self-splicing fitness (ln) (30 °C) | self-splicing fitness (ln) (37 °C) |
| --- | --- | --- |
| UUUUAGCAAUAUUACGACUA | -0.401 ± 0.18 | 0.109 ± 0.14 |
| UUUUAGCAAUAUUACGACUU | -1.64 ± 0.32 | -1.14 ± 0.33 |
| UUUUAGCAAUAUUACGAGAG | -1.12 ± 0.18 | -0.225 ± 0.21 |
| UUUUAGCAAUAUUACGAUCG | -0.15 ± 0.26 |  |
| UUUUAGCAAUAUUACGAUGU | -2.19 ± 0.23 | -1.6 ± 0.16 |
| UUUUAGCAAUAUUACGCAUU | -2.39 ± 0.11 | -1.27 ± 0.15 |
| UUUUAGCAAUAUUACGCGCG | -0.432 ± 0.11 | -0.122 ± 0.15 |
| UUUUAGCAAUAUUACGCUUG | -0.327 ± 0.2 | -0.13 ± 0.19 |
| UUUUAGCAAUAUUACGGACU | -2.67 ± 0.39 | -0.49 ± 0.35 |
| UUUUAGCAAUAUUACGGUCU | -2.23 ± 0.17 | -1.35 ± 0.2 |
| UUUUAGCAAUAUUACGUAUU | -3.2 ± 0.35 | -1.04 ± 0.38 |
| UUUUAGCAAUAUUACGUGAA | -1.14 ± 0.074 | -0.89 ± 0.1 |
| UUUUAGCAAUAUUACGUGAG | -0.331 ± 0.12 | -0.445 ± 0.22 |
| UUUUAGCAAUAUUACGUGAU | -2.76 ± 0.31 | -2.19 ± 0.32 |
